Results published in US20260167721A1 (ABLEXIS, published 2026).

B1: CD3 × CD33-BspAb115 (bispecific antibody)
scFv-Fc: NFMLTQPHSVSESPGKTVTISCTRTSGSIASNYVQWYQQRPGSSPTTVIYEDNQRPSGVPDRFSGSIDSSSNSASLTISGLKTEDEAAYYCQSYDRSNRVFGCGTKLTVLGGGGSGGGGSGGGGSGGGGSQVQLQESGPGLVKPSETLSLTCTVSGGSISSYYWSWIRQPAGKCLEWIGRIYTSGSTKYNPSLKSRVTMSVDTSKNQFSLKLISVTAADTAVYFCARERIRDLYFDYWGQGTLVTVSSGGGGSDKTHTCPPCPAPEFEGGPSVFLFPPKPKDTLMISRTPEVTCVVVDVSHEDPEVKFNWYVDGVEVHNAKTKPREEQYNSTYRVVSVLTVLHQDWLNGKEYKCKVSNKALPASIEKTISKAKGQPREPQVYTLPPCREEMTKNQVSLWCLVKGFYPSDIAVEWESNGQPENNYKTTPPVLDSDGSFFLYSKLTVDKSRWQQGNVFSCSVMHEALHNHYTQKSLSLSPGK
heavy: EVQLVQSGAEVKKPGSSVKVSCKASGYTITDSNIHWVRQAPGQSLEWIGYIYPYNGGTDYNQKFKNRATLTVDNPTNTAYMELSSLRSEDTAFYYCVNGNPWLAYWGQGTLVTVSSASTKGPSVFPLAPSSKSTSGGTAALGCLVKDYFPEPVTVSWNSGALTSGVHTFPAVLQSSGLYSLSSVVTVPSSSLGTQTYICNVNHKPSNTKVDKRVEPKSCDKTHTCPPCPAPEFEGGPSVFLFPPKPKDTLMISRTPEVTCVVVDVSHEDPEVKFNWYVDGVEVHNAKTKPREEQYNSTYRVVSVLTVLHQDWLNGKEYKCKVSNKALPASIEKTISKAKGQPREPQVCTLPPSREEMTKNQVSLSCAVKGFYPSDIAVEWESNGQPENNYKTTPPVLDSDGSFFLVSKLTVDKSRWQQGNVFSCSVMHEALHNRFTQKSLSLSPGK
light: DIQLTQSPSTLSASVGDRVTITCRASESLDNYGIRFLTWFQQKPGKAPKLLMYAASNQGSGVPSRFSGSGSGTEFTLTISSLQPDDFATYYCQQTKEVPWSFGQGTKVEVKRTVAAPSVFIFPPSDEQLKSGTASVVCLLNNFYPREAKVQWKVDNALQSGNSQESVTEQDSKDSTYSLSSTLTLSKADYEKHKVYACEVTHQGLSSPVTKSFNRGEC
notes: KiH heterodimer
B2: CD3 × CD33-BspAb116 (bispecific antibody)
scFv-Fc: NFMLTQPHSVSESPGKTVTISCTRSSGSIASNYVQWYQQRPGSSPTTVIYEDNQRPSGVPDRFSGSIDSSSNSASLTISGLKTEDEAYYYCQSFDSSNRVFGCGTKLTVLGGGGSGGGGSGGGGSGGGGSQVQLQESGPGLVKPSQTLSLTCTVSGGSISSGGYYWSWIRQHPGKCLEWIGYIYYSGSTYYNPSLKSRVTISVDTSKDQFSLKLSSVTAADTAVYYCARERKTSLPFDIWGQGTMVTVSSGGGGSDKTHTCPPCPAPEFEGGPSVFLFPPKPKDTLMISRTPEVTCVVVDVSHEDPEVKFNWYVDGVEVHNAKTKPREEQYNSTYRVVSVLTVLHQDWLNGKEYKCKVSNKALPASIEKTISKAKGQPREPQVYTLPPCREEMTKNQVSLWCLVKGFYPSDIAVEWESNGQPENNYKTTPPVLDSDGSFFLYSKLTVDKSRWQQGNVFSCSVMHEALHNHYTQKSLSLSPGK
heavy: B1 heavy
light: B1 light
notes: KiH heterodimer
B3: CD3 × CD33-BspAb117 (bispecific antibody)
scFv-Fc: NFMLTQPHSVSESPGKTVTISCTRSSGSIASNYVQWYQQRPGSSPTSVIYEDNQRPSGVPDRFSGSIDSSSNSASLTISGLKTEDEADYYCQSYDRSNRVFGCGTKLTVLGGGGSGGGGSGGGGSGGGGSEVQLVESGGGLVKPGGSLRLSCAASGLTFSTYSMNWVRQAPGKCLEWVSSISSSGSYVYYADSVKGRFTMSRDNAKNSLYLQMNSLRAEDTAVYYCARERRELLFDYWGQGTLVTVSSGGGGSDKTHTCPPCPAPEFEGGPSVFLFPPKPKDTLMISRTPEVTCVVVDVSHEDPEVKFNWYVDGVEVHNAKTKPREEQYNSTYRVVSVLTVLHQDWLNGKEYKCKVSNKALPASIEKTISKAKGQPREPQVYTLPPCREEMTKNQVSLWCLVKGFYPSDIAVEWESNGQPENNYKTTPPVLDSDGSFFLYSKLTVDKSRWQQGNVFSCSVMHEALHNHYTQKSLSLSPGK
heavy: B1 heavy
light: B1 light
notes: KiH heterodimer
B4: CD3 × CD33-BspAb118 (bispecific antibody)
scFv-Fc: FMLTQPHSVSESPGKTVTISCTRSSGSIASNYVQWYQQRPGSSPTTVIYEDNQRPSGVPDRFSGSIDSSSNSASLTISGLQTEDEADYYCQSYDSSNRVFGCGTKLTVLGGGGSGGGGSGGGGSGGGGSEVQLVESGGGLVKPGGSLRLSCVASGFTFSRYSMNWVRQAPGKCLEWVSSISSSSRYTYYADSLKGRFIMSRDNAKNSLFLQMNSLRAEDTAVYYCARNLYNALDYWGQGTLVTVSSGGGGSDKTHTCPPCPAPEFEGGPSVFLFPPKPKDTLMISRTPEVTCVVVDVSHEDPEVKFNWYVDGVEVHNAKTKPREEQYNSTYRVVSVLTVLHQDWLNGKEYKCKVSNKALPASIEKTISKAKGQPREPQVYTLPPCREEMTKNQVSLWCLVKGFYPSDIAVEWESNGQPENNYKTTPPVLDSDGSFFLYSKLTVDKSRWQQGNVFSCSVMHEALHNHYTQKSLSLSPGK
heavy: B1 heavy
light: B1 light
notes: KiH heterodimer
B5: CD3 × CD33-BspAb120 (bispecific antibody)
chain 1: NFMLTQPHSVSESPGKTVAISCTRSSGSIASNYVQWYQQRPGSSPTAVIYEDNQRPSGVPDRFSGSIDSSSNSAFLTISGLKTEDEADYYCQSYDSSNRVFGCGTKLTVLGGGGSGGGGSGGGGSGGGGSEVQLVESGGGLVKPGGSLRLSCAASGFTFSSYSMNWVRQAPGKCLEWVSSISRSSGYIFYADSVKGRFTISRDNAKNSLYLQMNSLRAEDTAVYYCVRERVGAGFDYWGQGTLVTVSSDKTHTCPPCPAPEFEGGPSVFLFPPKPKDTLMISRTPEVTCVVVDVSHEDPEVKFNWYVDGVEVHNAKTKPREEQYNSTYRVVSVLTVLHQDWLNGKEYKCKVSNKALPASIEKTISKAKGQPREPQVYTLPPCREEMTKNQVSLWCLVKGFYPSDIAVEWESNGQPENNYKTTPPVLDSDGSFFLYSKLTVDKSRWQQGNVFSCSVMHEALHNHYTQKSLSLSPGK
chain 2: B1 heavy
chain 3: B1 light
B6: CD3 × CD33-BspAb121 (bispecific antibody)
chain 1: QTVVTQEPSLTVSPGGTVTLTCASSTGAVTSGYYPNWFQQKPGQAPRALIYSTSNKHSWTPARFSGSLLGGKAALTLSGVQPEDEAEYYCLLYYGGAYVFGCGTKVTVLGGGGSGGGGSGGGGSGGGGSEVQLVESGGGLVKPGGSLRLSCAASGFTFSSYSMNWVRQAPGKCLEWVSSISRSGTYIYYADSVKGRFTISRDNAKNSLYLQMNSLRAEDTAVYYCARERWELLYFDYWGQGTLVTVSSDKTHTCPPCPAPEFEGGPSVFLFPPKPKDTLMISRTPEVTCVVVDVSHEDPEVKFNWYVDGVEVHNAKTKPREEQYNSTYRVVSVLTVLHQDWLNGKEYKCKVSNKALPASIEKTISKAKGQPREPQVYTLPPCREEMTKNQVSLWCLVKGFYPSDIAVEWESNGQPENNYKTTPPVLDSDGSFFLYSKLTVDKSRWQQGNVFSCSVMHEALHNHYTQKSLSLSPGK
chain 2: B1 heavy
chain 3: B1 light
B7: CD3 × CD33-BspAb122 (bispecific antibody)
chain 1: QTVVTQEPSFSVSPGGTVTLTCGLSSGSVSTSYYPSWYQQTPGQAPRTLIYSTNTRSSGVPDRFSGSILGNKAALTITGAQADDESDYYCVLYMGSGIWVFGCGTKLTVLGGGGSGGGGSGGGGSGGGGSEVQLVESGGGLVKPGGSLRLSCAASGFTVSNYSMNWVRQAPGKCLEWVSSISRSSSYIYYADSVKGRFTISRDNAKNSLFLQMNSLRAEDTAVYYCARERWELLYFDYWGQGTLVTVSSDKTHTCPPCPAPEFEGGPSVFLFPPKPKDTLMISRTPEVTCVVVDVSHEDPEVKFNWYVDGVEVHNAKTKPREEQYNSTYRVVSVLTVLHQDWLNGKEYKCKVSNKALPASIEKTISKAKGQPREPQVYTLPPCREEMTKNQVSLWCLVKGFYPSDIAVEWESNGQPENNYKTTPPVLDSDGSFFLYSKLTVDKSRWQQGNVFSCSVMHEALHNHYTQKSLSLSPGK
chain 2: B1 heavy
chain 3: B1 light

molecular target: T1, human CD3 (TCR/CD3 complex on the cell surface) (human, UniProt P07766 23-207; P04234 22-171; P09693 23-182); assay: flow cytometry, Pan-T cells, 1 ug/mL
T1 construct: whole, on cells; Native CD3 on human Pan-T cells or Jurkat wild-type cells; also called CD3 on Pan-T cells; CD3 on Jurkat WT cells
T1 sequence (P07766 23-207, chain 1 of 3): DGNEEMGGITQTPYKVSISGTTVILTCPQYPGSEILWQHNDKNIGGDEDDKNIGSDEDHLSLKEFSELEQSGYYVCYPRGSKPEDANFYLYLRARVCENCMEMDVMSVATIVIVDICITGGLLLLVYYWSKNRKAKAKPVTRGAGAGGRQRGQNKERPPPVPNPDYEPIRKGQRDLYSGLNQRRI
T1 sequence (P04234 22-171, chain 2 of 3): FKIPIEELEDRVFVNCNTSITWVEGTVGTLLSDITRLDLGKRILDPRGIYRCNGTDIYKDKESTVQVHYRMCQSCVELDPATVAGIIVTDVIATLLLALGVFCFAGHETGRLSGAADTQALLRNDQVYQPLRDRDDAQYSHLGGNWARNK
T1 sequence (P09693 23-182, chain 3 of 3): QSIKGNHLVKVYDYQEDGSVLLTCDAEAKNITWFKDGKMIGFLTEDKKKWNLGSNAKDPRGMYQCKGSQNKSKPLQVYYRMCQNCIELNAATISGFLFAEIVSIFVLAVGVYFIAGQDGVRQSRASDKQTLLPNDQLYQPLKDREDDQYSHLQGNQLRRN

Binder | % Positive [%] | gMFI [gMFI]
B1 | 63.4 | 8660
B2 | 31.6 | 5260
B3 | 99.6 | 70300
B4 | 99.3 | 331000
B5 | 95.2 | 27600
B6 | 1.5 | 1920
B7 | 1.9 | 2080

molecular target: T1, human CD3 (TCR/CD3 complex on the cell …); assay: flow cytometry, Jurkat WT cells, 10 ug/mL

Binder | gMFI [gMFI]
B1 | 12600
B2 | 9600
B3 | 38600
B4 | 65000
B5 | 14600
B6 | 2040
B7 | 1980

molecular target: T1, human CD3 (TCR/CD3 complex on the cell …); assay: flow cytometry, Jurkat WT gMFI over Jurkat KO gMFI, 1 ug/mL

Binder | Jurkat WT/KO (Fold) [fold]
B1 | 3.6
B2 | 1.6
B3 | 8.7
B4 | 12.3
B5 | 3.7
B6 | 0.8
B7 | 0.8

molecular target: T1, human CD3 (TCR/CD3 complex on the cell …); assay: flow cytometry, Jurkat WT gMFI over Jurkat KO gMFI, 10 ug/mL

Binder | Jurkat WT/KO (Fold) [fold]
B1 | 5.7
B2 | 4.1
B3 | 10.6
B4 | 13.8
B5 | 6.1
B6 | 1
B7 | 1

molecular target: T1, human CD3 (TCR/CD3 complex on the cell …); assay: flow cytometry, Jurkat WT cells, 1 ug/mL

Binder | gMFI [gMFI]
B1 | 7380
B2 | 3320
B3 | 29700
B4 | 56300
B5 | 8730
B6 | 1920
B7 | 1910

molecular target: T1, human CD3 (TCR/CD3 complex on the cell …); assay: flow cytometry, Pan-T cells, 10 ug/mL

Binder | % Positive [%] | gMFI [gMFI]
B1 | 95.5 | 34200
B2 | 98.2 | 30000
B3 | 99.7 | 195000
B4 | 99.8 | 370000
B5 | 99.3 | 87700
B6 | 1.5 | 1920
B7 | 1 | 2020
